Experimental data as given in patent US10456446B2, “Use of human small leucine zipper protein in osteogenesis procedure” (Korea University Research and Business Foundation, priority 2013, dated 2019).

Experiments:
PPARγ2 = molecular target: T1, PPARγ2 (Mus musculus, UniProt P37238); test: PPARγ2 transcriptional activity in FABP4-Luc stable C3H10T1/2 cells differentiated into adipocytes; format: cell-based; conditions: sLZIP-expressing adenovirus, differentiated into adipocytes for 4 days
T1 construct: endogenous in cells
T1 sequence (P37238 1-505): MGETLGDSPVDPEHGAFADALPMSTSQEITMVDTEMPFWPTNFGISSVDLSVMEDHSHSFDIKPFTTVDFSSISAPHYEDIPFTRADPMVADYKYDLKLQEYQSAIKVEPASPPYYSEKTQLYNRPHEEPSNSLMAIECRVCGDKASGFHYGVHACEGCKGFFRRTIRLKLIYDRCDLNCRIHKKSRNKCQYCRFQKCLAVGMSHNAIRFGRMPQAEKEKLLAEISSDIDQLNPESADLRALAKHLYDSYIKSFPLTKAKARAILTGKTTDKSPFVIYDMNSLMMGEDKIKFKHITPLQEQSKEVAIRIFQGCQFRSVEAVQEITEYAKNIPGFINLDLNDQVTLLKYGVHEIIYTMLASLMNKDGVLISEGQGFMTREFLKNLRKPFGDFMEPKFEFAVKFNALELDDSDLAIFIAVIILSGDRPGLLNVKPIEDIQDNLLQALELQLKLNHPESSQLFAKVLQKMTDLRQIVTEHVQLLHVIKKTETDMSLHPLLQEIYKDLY

HDAC3 = molecular target: T2, HDAC3 (Homo sapiens, UniProt O15379); test: GST pull-down of sLZIP with HDAC3 in 293T cells; format: binding
T2 construct: expressed in transfected cells; host or cells: 293T
T2 sequence (O15379 whole entry, species assumed): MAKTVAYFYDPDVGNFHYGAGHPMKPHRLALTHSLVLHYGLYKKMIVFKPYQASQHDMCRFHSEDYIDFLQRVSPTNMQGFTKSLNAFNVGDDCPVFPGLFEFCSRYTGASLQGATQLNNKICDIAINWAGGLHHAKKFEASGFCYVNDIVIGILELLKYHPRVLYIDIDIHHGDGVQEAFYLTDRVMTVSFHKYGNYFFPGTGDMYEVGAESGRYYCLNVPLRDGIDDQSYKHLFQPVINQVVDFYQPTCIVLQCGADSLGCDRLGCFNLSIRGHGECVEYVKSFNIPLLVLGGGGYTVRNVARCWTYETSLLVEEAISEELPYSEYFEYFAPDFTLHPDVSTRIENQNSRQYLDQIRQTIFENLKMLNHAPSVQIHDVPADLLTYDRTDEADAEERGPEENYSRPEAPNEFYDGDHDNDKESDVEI
Method: 293T cells were obtained and washed with cold PBS. The cells were re-suspended in an IP lysis buffer [25 mM of Tris-HCl (pH 7.4), 150 mM of NaCl, 1 mM of EDTA, 1% NP-40 and 5% glycerol, and a protease inhibitor]. A suspension was centrifuged at 16,000×g for 20 minutes at 4° C. Supernatants were collected and incubated with 0.5 μg of appropriate antibodies and 25 μl of protein A/G-agarose or a GST Sepharose 4B bead for 24 hours at 4° C. A protein complex was centrifuged at 1,000×g with a cold IP lysis buffer for 1 minute and washed five times. The final pellet was re-suspended in 50 μl of an SDS-sample buffer containing 5% β-mercaptoethanol and heated for 10 minutes at 100° C. A protein sample was isolated in SDS-PAGE (8 to 10%) and transferred to nitrocellulose membranes. Co-precipitated proteins were detected according to western blotting using specific antibodies.
For this purpose, 293T cells were transiently transfected with PPARγ2 (0.5 μg), β-galactosidase (0.1 μg), FABP4-Luc reporter genes (0.2 μg) and sLZIP (0.1 μg). […] A promoter activity was measured according to luciferase analysis. […] After the transfection, the cells were stimulated with or without 10 nM of RZD, and a promoter activity was measured (FIG. 4B). […] GFP-sLZIP expression constructs were expressed in C3H10T1/2 cells, rabbit anti-HDAC3 antibodies and Texas Red-labeled anti-rabbit antibodies were used and analysis was performed under a fluorescence microscope. […] A protein complex was analyzed in SDS-PAGE, and anti-GST and anti-Flag antibodies were used for immunoblotting (FIG. 4E). *, P<0.05; **, P<0.01
For this purpose, 293T cells were transfected with GST-PPARγ2 and Flag-sLZIP and were treated or not treated with 10 nM of RZD for 24 hours. […] A protein complex was analyzed in SDS-PAGE, and immunoblotted with anti-GST and anti-Flag antibodies. […] The cell lysates were GST pull-down analyzed (FIG. 5C). […] The cell lysates were GST pull-down analyzed (FIG. 5D). […] A protein complex was analyzed in SDS-PAGE, and then immunoblotted with anti-NCoR1 and anti-Flag antibodies (FIG. 5E). […]

B1: sLZIP: human small leucine-zipper protein, isoform of LZIP, 354 amino acids, no transmembrane domain, GenBank FJ263669, SEQ ID NO: 1 (protein, listed as Homo sapiens)
chain: MELELDAGDQDLLAFLLEESGDLGTAPDEAVRAPLDWALPLSEVPSDWEVDDLLCSLLSPPASLNILSSSNPCLVHHDHTYSLPRETVSMDLESESCRKEGTQMTPQHMEELAEQEIARLVLTDEEKSLLEKEGLILPETLPLTKTEEQILKRVRRKIRNKRSAQESRRKKKVYVGGLESRVLKYTAQNMELQNKVQLLEEQNLSLLDQLRKLQAMVIEISNKTSSSSMYSSDTRGSLPAEHGVLSRQLRALPSEDPYQLELPALQSEVPKDSTHQWLDGSDCVLQAPGNTSCLLHYMPQAPSAEPPLEWPFPDLFSEPLCRGPILPLQANLTRKGGWLPTGSPSVILQDRYSG
PPARγ2
  transcriptional activity of PPARγ2 (relative luciferase activity): decreased
HDAC3; 10 nM RZD for 24 hours
  interaction with HDAC3: remained as being interacted with sLZIP
HDAC3; GST-HDAC3 and Flag-sLZIP, 293T cells, GST pull-down
  interaction with HDAC3: interacted with HDAC3
HDAC3; no RZD treated
  interaction with HDAC3 in a PPARγ2 corepressor complex: interacted with HDAC3
